Assay results taken from patent publication US8491891B2, “Human beta-glucuronidase mutants with elevated enzymatic activity under physiological conditions and method for identifying such” (Academia Sinica, priority 2008, dated 2013).

Columns and labels:
[1] = Enzymatic activity of mouse versus human β-glucuronidase at pH 7.0; format: biochemical
From the text: Each of the cDNAs encoding human and mouse beta-glucuronidases (Genbank accession no. NM_000181, 03-SEP-2009 and Genbank accession no. J02836.1, 29-APR-1996) was fused to the juxtamembrane Ig-like extracellular domain, transmembrane domain and cytoplasmic tail of murine B7-1. See Chen et al., Cancer Gene Ther 14:187-200 (2007).

[2] = Relative activity of membrane-tethered human β-glucuronidase variants on 3T3 cells by flow cytometry (FL4/FL1); format: cell-based; details: membrane-tethered enzyme, pH 7.0, substrate ELF97 β-D-glucuronide
Procedure: The 3T3 cell libraries mentioned above were screened by FACS analysis for cells that express human β-glucuronidase variants with elevated enzymatic activity. 10^7 3T3 cells expressing membrane-bound human β-glucuronidase variants were washed and suspended in 0.4 ml BSA/HBSS (5.4 mM KCl, 0.3 mM Na2HPO4, 0.4 mM KH2PO4, 4.2 mM NaHCO3, 1.3 mM CaCl2, 0.5 mM MgCl2, 0.6 mM MgSO4, 137 mM NaCl, 5.6 mM D-glucose, pH 7.4) containing 0.5% bovine serum albumin (BSA) and 20 μg/ml 7G8-FITC for 30 min at 4° C. Cells were then washed and incubated with 25, 50 or 100 μM ELF97 β-D-glucuronide at defined pH values in 50 mM Bis-Tris, 25 mM glucose, 85.6 mM NaCl, 5.4 mM KCl, 0.6 mM MgSO4, 1.3 mM CaCl2) at 37° C. for 10 min. The cells were washed with ice-cold 0.5% BSA/HBSS and suspended in 0.5% BSA/HBSS containing 5 μg/ml propidium iodide (Sigma). Cells were then sorted on a FACSVantage DiVa (Becton, Dickinson and Company, Franklin Lakes, N.J.) equipped with an Enterprise IIC argon laser for dual excitation at 488 and 351-364 nm. Dead cells (propidium iodide positive, high FL3 fluorescence) were gated out before 7G8-FITC immunofluorescence was detected at excitation/emission wavelengths of 488/515 nm (FL1) and ELF97 was detected at excitation/emission wavelengths of 351/530 nm (FL4). […] The sorted cells were cultured for 4-10 days for sequential rounds of cell sorting or RNA extraction. Flow cytometer data was analyzed using Flowjo (Tree star, Ashland, Oreg.).
Independent 3T3 clones (5×10^7) in library EP2 mentioned above were immunofluorescence stained with 7G8-FITC and reacted with ELF97 β-D-glucuronide at pH 7.0. Sixteen individual cell clones were isolated after three rounds of sorting and the human β-glucuronidase genes were sequenced. […] Table 1 below lists amino acid substitutions in five exemplary variants and their relative enzymatic activities.

[3] = Kinetic values (Km, kcat) of soluble recombinant human β-glucuronidase and variants; format: biochemical
Procedure: Recombinant His-tagged wild-type human β-glucuronidase and its variants (soluble) were produced in and purified from stable 3T3 fibroblast lines, following the method described above also the method described in Wu et al., Biotechnol Appl Biochem 40:167-172 (2004).
The pH-dependent enzyme activities of the above-mentioned recombinant human beta-glucuronidase and variants were measured in triplicate with 0.1 mM ELF97 β-D-glucuronide at 37° C. for 30 minutes at a defined pH ranging from 3-10 in a beta-glucuronidase reaction buffer (50 mM Bis-Tris, 50 mM triethanol amine, 100 mM acetic acid, 0.1% BSA). The reaction was quenched by adding an equal volume of a stop buffer (2 M Tris-HCl, 0.8 M sodium bicarbonate, pH 8). The fluorescence of ELF97 was measured in a Gemini EM microplate spectrofluorometer (Molecular Device, Sunnyvale, Calif.) at excitation/emission wavelengths of 355/555 nm. Kinetic values for human beta-glucuronidase substrate hydrolysis were determined by diluting ELF97 β-D-glucuronide (2 mM) in a pH 4.5 or pH 7.0 beta-glucuronidase reaction buffer 1:1 with defined concentrations of human beta-glucuronidase in 200 μl. Fluorescence was immediately measured under thermal control at 37° C. for 8-10 min. The measurement was repeated using the same amount of enzyme at different substrate concentrations in an optimal range. The acquired readings were converted to product concentration based on preestablished standard curves. Double reciprocal plots were used to determine Km and kcat. Kinetic assays were performed at least 3 times and mean values were calculated. The stability of recombinant human beta-glucuronidase variants was carried out by measuring their enzymatic activity at time 0 and again after incubating 5 μg purified enzymes in PBS (containing 0.5 mg/ml BSA) at 37° C. for 14 days. The enzymatic activities of the human beta-glucuronidase variants were measured in triplicate with 0.5 mM 4-methylumbelliferyl β-D-glucuronide at 37° C. for 15 minutes at pH 7.0 in β-glucuronidase reaction buffer. The reaction was terminated by adding an equal volume of a stop buffer (1 M glycine, 0.5 M sodium bicarbonate, pH 11) and the fluorescence was measured at excitation/emission wavelengths of 355/460 nm in a microplate spectrofluorometer.

[4] = test system: EJ human bladder cancer cells; experiment: Prodrug activation of HAMG by enzyme, 3H-thymidine incorporation; format: cell-based; details: 10 μM HAMG
Procedure: (§1) The prodrug activation activity of the human beta-glucuronidase variants was determined as follows. EJ human bladder cancer cells were incubated with graded concentrations (see FIGS. 3B and 3C) of human β-glucuronidase variants in RPMI (pH 6.8) containing either 10 μM HAMG or 100 nM SN-38G for 24 hours. The cells were further incubated for 24 hours in fresh medium before incorporation of ^3H-thymidine into cellular DNA was measured following the procedure described below.
(§2) Purified recombinant human beta-glucuronidase and its variants with defined concentrations were mixed with 10 μM HAMG or 100 nM SN-38G and the mixture was added to 5000 EJ human bladder cancer cells in 200 μl complete medium at pH 6.8 for 24 h. The cells were washed and incubated in fresh medium for 24 h and then pulsed for 16 h with ^3H-thymidine (1 μCi/well). The cells were harvested and the radioactivity was measured in a TopCount Microplate Scintillation Counter (Packard, Meriden, Conn.). Results are expressed as percent inhibition of ^3H-thymidine incorporation into cellular DNA in comparison to untreated cells.

[5] = test system: EJ human bladder cancer cells; experiment: Prodrug activation of SN-38G by enzyme, 3H-thymidine incorporation; format: cell-based; details: 100 nM SN-38G
Procedure: as §1, §2

[6] = Beta-glucuronidase activity of fusion proteins at pH 7.0; format: biochemical; details: pH 7.0, 0.5 mM substrate, 30 minutes, 37° C.
Procedure: Next, the beta-glucuronidase activity of the fusion proteins was measured by adding 0.5 mM 4-methylumbelliferyl β-D-glucuronide in a beta-glucuronidase reaction buffer (50 mM Bis-Tris, 50 mM triethanol amine, 100 mM acetic acid, 100 ng/ml bovine serum albumin, pH 7.0) for 30 minutes at 37° C. The reaction was terminated by adding an equal volume of stop buffer (1 M glycine, 0.5 M sodium bicarbonate, pH 11). The fluorescence of 4-MU was measured at excitation/emission wavelengths of 355/460 nm in a Gemini EM microplate spectrofluorometer (Molecular Device, Sunnyvale, Calif.). […] See also FIG. 9.

Molecule	Enzymatic activity compared with human β-glucuronidase [1]	Relative activity (FL4/FL1 normalized to wild-type human β-glucuronidase) [2]	Km ([3]; pH 4.5, 37° C.) [µM]	kcat ([3]; pH 4.5, 37° C.) [s⁻¹]	Km ([3]; pH 7.0, 37° C.) [µM]	kcat ([3]; pH 7.0, 37° C.) [s⁻¹]	kcat/Km at pH 7.0, fold greater than kcat/Km of wild type at pH 4.5 ([3]; variant at pH 7.0 vs wild type at pH 4.5)	Fold more effective than wild type (HAMG activation) ([4]; pH 6.8) [fold]	EC50 of enzyme for killing of EJ cells with HAMG ([4]; pH 6.8, 24 h) [µg/mL]	Fold improvement in prodrug activation over wild type (SN-38G) ([5]; pH 6.8) [fold]	EC50 of enzyme for killing of EJ cells with SN-38G ([5]; pH 6.8, 24 h) [ng/mL]	Enzymatic activity compared with wild-type hβG [6]
Mouse β-glucuronidase: mouse beta-glucuronidase, Genbank accession no. J02836.1 (protein, left off: small tags and cut ends) LKGGMLFPKESPSRELKALDGLWHFRADLSNNRLQGFEQQWYRQPLRESGPVLDMPVPSSFNDITQEAALRDFIGWVWYEREAILPRRWTQDTDMRVVLRINSAHYYAVVWVNGIHVVEHEGGHLPFEADISKLVQSGPLTTCRITIAINNTLTPHTLPPGTIVYKTDTSMYPKGYFVQDTSFDFFNYAGLHRSVVLYTTPTTYIDDITVITNVEQDIGLVTYWISVQGSEHFQLEVQLLDEGGKVVAHGTGNQGQLQVPSANLWWPYLMHEHPAYMYSLEVKVTTTESVTDYYTLPIGIRTVAVTKSKFLINGKPFYFQGVNKHEDSDIRGKGFDWPLLVKDFNLLRWLGANSFRTSHYPYSEEVLQLCDRYGIVVIDECPGVGIVLPQSFGNESLRHHLEVMEELVRRDKNHPAVVMWSVANEPSSALKPAAYYFKTLITHTKALDLTRPVTFVSNAKYDADLGAPYVDVICVNSYFSWYHDYGHLEVIQPQLNSQFENWYKTHQKPIIQSEYGADAIPGIHEDPPRMFSEEYQKAVLENYHSVLDQKRKEYVVGELIWNFADFMTNQSPLRVIGNKKGIFTRQRQPKTSAFILRERYWRIANETGGHGSGPRTQCFGSRPFTFKADFSTPNITESGNPSADTKRITCFASGGFPKPRFSWLENGRELPGINTTISQDPESELYTISSQLDFNTTRNHTIKCLIKYGDAHVSEDFTWEKPPEDPPDSKNTLVLFGAGFGAVITVVVIVVIIKCFCKHRSCFRRNEASRETNNSLTFGPEEALAEQTVFL	about three-fold greater	–	–	–	–	–	–	–	–	–	–	–
S2: human beta-glucuronidase variant V159M, T545S, E595L, T599L, SEQ ID NO: 8 (protein, Laboratory generated variant, S2, based upon the human beta-glucuronidase) AAQPALQGGMLYPQESPSRECKELDGLWSFRADFSDNRRRGFEEQWYRRPLWESGPTVDMPVPSSFNDISQDWRLRHFVGWVWYEREVILPERWTQDLRTRVVLRIGSAHSYAIVWVNGVDTLEHEGGYLPFEADISNLVQMGPLPSRLRITIAINNTLTPTTLPPGTIQYLTDTSKYPKGYFVQNTYFDFFNYAGLQRSVLLYTTPTTYIDDITVTTSVEQDSGLVNYQISVKGSNLFKLEVRLLDAENKVVANGTGTQGQLKVPGVSLWWPYLMHERPAYLYSLEVQLTAQTSLGPVSDFYTLPVGIRTVAVTKSQFLINGKPFYFHGVNKHEDADIRGKGFDWPLLVKDFNLLRWLGANAFRTSHYPYAEEVMQMCDRYGIVVIDECPGVGLALPQFFNNVSLHHHMQVMEEVVRRDKNHPAVVMWSVANEPASHLESAGYYLKMVIAHTKSLDPSRPVTFVSNSNYAADKGAPYVDVICLNSYYSWYHDYGHLELIQLQLATQFENWYKKYQKPIIQSEYGAESIAGFHQDPPLMFTEEYQKSLLEQYHLGLDQKRRKYVVGELIWNFADFMTLQSPLRVLGNKKGIFTRQRQPKSAAFLLRERYWKIANETRYPHSVAKSQCLENSPFTSVD	–	65	8.1 ± 0.8	107 ± 7	35 ± 3	42 ± 4	about 2 fold	9	2.7	11	8.4	significantly greater
